Test results from US20190256597.

System: T1, cleavable peptide CP(AQ), Lys(AQ)SerGlyProLeuGlyValArgGlySerSerCys
T1 sequence: KSGPLGVRGSSC

purified, recombinant MMP2 (BioLegend, #554304)
proteolytic cleavage followed by thin layer chromatography: after the incubation of CP(AQ) with MMP2, the compound was able to shift organic solution, with a transformed behavior from hydrophilic to hydrophobic
